T1: human GIP receptor (human, UniProt P48546 22-466)
T1 sequence (looked up): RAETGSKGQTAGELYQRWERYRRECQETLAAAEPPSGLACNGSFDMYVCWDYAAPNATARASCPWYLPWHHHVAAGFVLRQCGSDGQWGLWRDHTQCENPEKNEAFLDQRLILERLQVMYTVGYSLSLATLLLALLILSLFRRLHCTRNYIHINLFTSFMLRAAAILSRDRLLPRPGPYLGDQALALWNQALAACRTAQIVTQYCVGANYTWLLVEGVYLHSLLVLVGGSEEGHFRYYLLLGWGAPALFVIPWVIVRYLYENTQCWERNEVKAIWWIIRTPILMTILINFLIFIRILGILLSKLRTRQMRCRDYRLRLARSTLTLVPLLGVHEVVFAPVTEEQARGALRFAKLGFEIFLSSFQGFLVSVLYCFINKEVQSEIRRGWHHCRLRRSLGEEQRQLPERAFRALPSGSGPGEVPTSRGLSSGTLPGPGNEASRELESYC

B1: Example 57 (peptide)
peptide: YXEGTXTSDXSIXLDXKAQXEFIXXLIEGGKSSGAPPPS
modifications: Aib2, αMeF(2F)6, 2Nal10, αMeL13, Orn16, Aib20, D-Glu24, αMeY25, K17 and K31: K(AEEA2-(γ-Glu)-CO-(CH2)12-CO2H), C-terminal NH2
B2: Example 49 (peptide)
peptide: YXEGTXTSDYXIXLDXKAQXEFIXXLIEGGKSSGAPPPS
modifications: Aib2, αMeF(2F)6, αMeS11, αMeL13, Orn16, Aib20, D-Glu24, αMeY25, K17 and K31: K(AEEA2-(γ-Glu)-CO-(CH2)12-CO2H), C-terminal NH2
B3: Example 68 (peptide)
peptide: YXEGTXTSDXSIXLDXKAQXEFIEKLIEGGPSSGAPPPS
modifications: Aib2, αMeF(2F)6, 4Pal10, αMeL13, Orn16, Aib20, K17 and K25: K(AEEA2-(γ-Glu)-(4-(4-tert-butylphenyl)butanoyl)), C-terminal NH2
B4: Example 64 (peptide)
peptide: YXEGTXTSDXSIXLDXKAQXEXIXXLIEGGKSSGAPPPS
modifications: Aib2, αMeF(2F)6, 4Pal10, αMeL13, Orn16, Aib20, 3FPhe22, D-Glu24, αMeY25, K17 and K31: K(AEEA2-(γ-Glu)-CO-(CH2)12-CO2H), C-terminal NH2
B5: Example 58 (peptide)
peptide: YXEGTXTSDXSIXLDXKAQXEFIXXLIEGGKSSGAPPPS
modifications: Aib2, αMeF(2F)6, OMeY10, αMeL13, Orn16, Aib20, D-Glu24, αMeY25, K17 and K31: K(AEEA2-(γ-Glu)-CO-(CH2)12-CO2H), C-terminal NH2
B6: Example 71 (peptide)
peptide: YXEGTXTSDXSIXLDXIAQXEFIKXLIEGGKSSGAPPPS
modifications: Aib2, αMeF(2F)6, 4Pal10, αMeL13, Orn16, Aib20, αMeY25, K24 and K31: K(AEEA2-(γ-Glu)-CO-(CH2)12-CO2H), C-terminal NH2
B7: Example 67 (peptide)
peptide: YXEGTXTSDXSIXLDXKAQXEFIXKLIEGGPSSGAPPPS
modifications: Aib2, αMeF(2F)6, 4Pal10, αMeL13, Orn16, Aib20, D-Glu24, K17 and K25: K(AEEA2-(γ-Glu)-(4-(4-tert-butylphenyl)butanoyl)), C-terminal NH2
B8: Example 47 (peptide)
peptide: YXEGTXTSDXSIXLDXKAQXEXIXXLIEGGKSSGAPPPS
modifications: Aib2, αMeF6, 4Pal10, αMeL13, Orn16, Aib20, αMeF22, D-Glu24, αMeY25, K17 and K31: K(AEEA2-(γ-Glu)-CO-(CH2)12-CO2H), C-terminal NH2
B9: Example 59 (peptide)
peptide: YXEGTXTSDXSIXLDXKAQXEFIXXLIEGGKSSGAPPPS
modifications: Aib2, αMeF(2F)6, hTyr10, αMeL13, Orn16, Aib20, D-Glu24, αMeY25, K17 and K31: K(AEEA2-(γ-Glu)-CO-(CH2)12-CO2H), C-terminal NH2
B10: Example 70 (peptide)
peptide: YXEGTXTSDXSIXLDXIAQXEFIKXLIKGGPSSGAPPPS
modifications: Aib2, αMeF(2F)6, 4Pal10, αMeL13, Orn16, Aib20, αMeY25, K24 and K28: K(AEEA2-(γ-Glu)-CO-(CH2)12-CO2H), C-terminal NH2
B11: Example 45 (peptide)
peptide: YXEGTXTSDXSIXLDXKAQXEFIXXLIEGGKSSGAPPPS
modifications: Aib2, αMeF6, αMeF10, αMeL13, Orn16, Aib20, D-Glu24, αMeY25, K17 and K31: K(AEEA2-(γ-Glu)-CO-(CH2)12-CO2H), C-terminal NH2
B12: Example 41 (peptide)
peptide: YXEGTXTSDXSIXLDXKAQXEFIXXLIEGGKSSGAPPPS
modifications: Aib2, αMeF(2F)6, 4Pal10, αMeL13, Orn16, Aib20, D-Glu24, αMeY25, K17 and K31: K((γ-Glu)-AEEA2-CO-(CH2)12-CO2H), C-terminal NH2
B13: Example 48 (peptide)
peptide: YXEGTXTSDXSIXLDXKAQXEFIXXLIEGGKSSGAPPPS
modifications: Aib2, αMeF6, 4Pal10, αMeL13, Orn16, Aib20, D-Glu24, αMeF25, K17 and K31: K(AEEA2-(γ-Glu)-CO-(CH2)12-CO2H), C-terminal NH2
B14: Example 63 (peptide)
peptide: YXEGTXTSDXSIXLDXKAQXEXIXXLIEGGKSSGAPPPS
modifications: Aib2, αMeF(2F)6, 4Pal10, αMeL13, Orn16, Aib20, 2FPhe22, D-Glu24, αMeY25, K17 and K31: K(AEEA2-(γ-Glu)-CO-(CH2)12-CO2H), C-terminal NH2
B15: Example 55 (peptide)
peptide: YXEGTXTSDXSIXLDXKAQXEFIXXLIEGGKSSGAPPPS
modifications: Aib2, αMeF(2F)6, Bip10, αMeL13, Orn16, Aib20, D-Glu24, αMeY25, K17 and K31: K(AEEA2-(γ-Glu)-CO-(CH2)12-CO2H), C-terminal NH2
B16: Example 46 (peptide)
peptide: YXEGTXTSDXSIXLDXKAQXEFIXXLIEGGKSSGAPPPS
modifications: Aib2, αMeF6, 4Pal10, αMeF13, Orn16, Aib20, D-Glu24, αMeY25, K17 and K31: K(AEEA2-(γ-Glu)-CO-(CH2)12-CO2H), C-terminal NH2
B17: Example 69 (peptide)
peptide: YXEGTXTSDXSIXLDXIAQXKFIKXLIEGGPSSGAPPPS
modifications: Aib2, αMeF(2F)6, 4Pal10, αMeL13, Orn16, Aib20, αMeY25, K21 and K24: K(AEEA2-(γ-Glu)-CO-(CH2)12-CO2H), C-terminal NH2
B18: Example 42 (peptide)
peptide: YXEGTXTSDXSIXLDXKAQXEFIXXLIEGGKSSGAPPPS
modifications: Aib2, αMeF(2F)6, 4Pal10, αMeL13, Orn16, Aib20, D-Glu24, αMeY25, K17 and K31: K((γ-Glu)-AEEA-CO-(CH2)12-CO2H), C-terminal NH2
B19: Example 72 (peptide)
peptide: YXEGTXTSDXSIXLDXIAQXEFIKXLIEGGPSSGAPPPSK
modifications: Aib2, αMeF(2F)6, 4Pal10, αMeL13, Orn16, Aib20, αMeY25, K24 and K40: K(AEEA2-(γ-Glu)-CO-(CH2)12-CO2H), C-terminal NH2

Columns and labels:
Assay in all cases: cell-based or functional assay
human GIP receptor = target: T1, human GIP receptor
human GLP-1 receptor = human GLP-1 receptor (human, UniProt P43220 24-463)
human glucagon receptor = human glucagon receptor (human, UniProt P47871 26-477)

Binder | EC50, cAMP (human GIP receptor) [nM] | EC50, cAMP (human GLP-1 receptor) [nM] | EC50, cAMP (human glucagon receptor) [nM] | Emax, cAMP (human GIP receptor) [%] | Emax, cAMP (human GLP-1 receptor) [%]
B1 | 0.0135 | 0.14 | > 9950 |  | 
B2 | 0.0205 | 0.398 | > 9950 | 91 | 97.3
B3 | 0.0105 | 0.668 | > 9950 |  | 95.9
B4 | 0.0158 | 0.557 | > 9950 |  | 97.3
B5 | 0.0158 | 0.194 | > 9950 | 89.2 | 
B6 | 0.0171 | 0.246 | > 9950 | 93.8 | 
B7 | 0.00795 | 2.63 | > 9950 |  | 91.7
B8 | 0.0138 | 1.94 | > 9950 |  | 87.1
B9 | 0.024 | 0.202 | > 9950 | 89.2 | 
B10 | 0.0182 | 0.283 | > 9950 | 89.1 | 
B11 | 0.0517 | 9.18 | > 9950 |  | 
B12 | 0.0108 | 0.691 | > 9950 |  | 
B13 | 0.0182 | 1 | > 9950 |  | 
B14 | 0.0176 | 1.86 | > 9950 |  | 90.6
B15 | 0.0207 | 0.154 | > 9950 |  | 
B16 | 0.0801 | 3.29 | > 9950 | 89.5 | 
B17 | 0.0265 | 0.276 | > 9950 | 99 | 
B18 | 0.0103 | 0.429 | > 9950 |  | 
B19 | 0.016 | 0.245 | > 9950 | 96.5 | 
